# Data reported in FireProtDB (doi:10.1016/j.bpc.2007.01.002).
# Details: Equus caballus, Thermal, reversible: Yes
# [1] = pH 3.8, DSC, Sodium acetate 50 mM, transition: 3
# [2] = pH 4.1, DSC, Sodium acetate 50 mM
# [3] = pH 4.1, DSC, Sodium acetate 50 mM, transition: 3
# [4] = pH 4.5, DSC, Sodium acetate 50 mM
# [5] = pH 5, DSC, Sodium acetate 50 mM
# [6] = pH 5, DSC, Sodium acetate 50 mM, transition: 3
# Sequence of Cytochrome c wild type, P00004 (P00004 whole entry): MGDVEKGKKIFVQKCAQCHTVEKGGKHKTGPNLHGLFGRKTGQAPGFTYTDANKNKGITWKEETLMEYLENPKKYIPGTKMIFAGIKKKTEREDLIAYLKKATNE
substance,measurement,setting,value
"Cytochrome c wild type, P00004",Tm,"pH 2.9, IATC, KCl 20 mM",40 °C
same,unfolding enthalpy (calorimetric),"pH 2.9, IATC, KCl 20 mM",68.8 kcal/mol
same,Tm,[1],68 °C
same,unfolding enthalpy (calorimetric),[1],33.7 kcal/mol
same,Tm,[2],70 °C
same,heat capacity change of unfolding,[2],1.34 kcal/mol/K
same,unfolding enthalpy (calorimetric),[2],112 kcal/mol
same,Tm,[3],69 °C
same,unfolding enthalpy (calorimetric),[3],33.7 kcal/mol
same,Tm,[4],74.1 °C
same,heat capacity change of unfolding,[4],1.51 kcal/mol/K
same,unfolding enthalpy (calorimetric),[4],119 kcal/mol
same,Tm,[5],76.2 °C
same,heat capacity change of unfolding,[5],1.39 kcal/mol/K
same,unfolding enthalpy (calorimetric),[5],124 kcal/mol
same,Tm,[6],73 °C
same,unfolding enthalpy (calorimetric),[6],37.5 kcal/mol
